Target: EGFRvIII (Epidermal Growth Factor Receptor Variant III) (human) (UniProt P00533)
Test: cell-based or functional assay

B1: AMG 596 (bispecific antibody, part only; not given: CD3-binding domain; linkers, part only)
chain, part: QVQLVESGGGVVQSGRSLRLSCAASGFTFRNYGMHWVRQAPGKCLEWVAVIWYDGSDKYYADSVRGRFTISRDNSKNTLYLQMNSLRAEDTAVYYCARDGYDILTGNPRDFDYWGQGTLVTVSSDTVMTQTPLSSHVTLGQPASISCRSSQSLVHSDGNTYLSWLQQRPGQPPRLLIYRISRRFSGVPDRFSGSGAGTDFTLEISRVEAEDVGVYYCMQSTHVPRTFGCGTKVEIK
EC20 (in vitro cytotoxic activity): 0.07 ng/mL
EC50 (in vitro cytotoxic activity): 0.41 ng/mL
EC90 (concentration found to produce 90% cytotoxic activity): 1.8 ng/mL
